Experiments:
Test in all cases: purified protein
Type in all cases: biochemical, Bacillus amyloliquefaciens
purified protein [1] = substrate: NC(=O)c1ccc[n+]([C@@H]2O[C@H](COP(=O)(O)OP(=O)(O)OC[C@H]3O[C@@H](n4cnc5c(N)ncnc54)[C@H](O)[C@@H]3O)[C@@H](O)[C@H]2O)c1; details: co-substrate glucose, apparent, pH and temperature of kinetics not stated (default assay Tris-Cl pH 8 or CPB buffer, 37 °C), varied: cofactor
purified protein [2] = substrate: NC(=O)c1ccc[n+]([C@@H]2O[C@H](COP(=O)(O)OP(=O)(O)OC[C@H]3O[C@@H](n4cnc5c(N)ncnc54)[C@H](OP(=O)(O)O)[C@@H]3O)[C@@H](O)[C@H]2O)c1; details: co-substrate glucose, apparent, pH and temperature of kinetics not stated (default assay Tris-Cl pH 8 or CPB buffer, 37 °C), varied: cofactor
purified protein [3] = substrate: OC[C@H]1O[C@@H](O)[C@H](O)[C@@H](O)[C@@H]1O; details: with 0.5 mM NADP+, apparent, pH and temperature of kinetics not stated (default assay Tris-Cl pH 8 or CPB buffer, 37 °C)

B1: GluDH-BA (Bacillus amyloliquefaciens) (protein)
chain: MYTDLKGKVVAITGASSGLGKAMAIRFGQEQAKVVVNYYSNEKDAQTVKEEIQKAGGEAVIIQGDVTKEEDVKNIVQTAVKEFGTLDVMINNAGMENPVQSHEMPLKDWNKVINTNLTGAFLGSREAIKYYVENDIQGNVINMSSVHEMIPWPLFVHYAASKGGIKLMTETLALEYAPKRIRVNNIGPGAINTPINAEKFADPVQRKDVESMIPMGYIGEPEEIAAVAVWLASKESSYVTGITLFADGGMTKYPSFQAGRG
notes: full length (261 aa, 28 kDa), 6xHis inserted right after start Met, pET23b, E. coli BL21(DE3), Ni-purified; tag cleavage not mentioned
Km (purified protein [1]): 250 ± 30 µM | Km (purified protein [2]): 50 ± 4 µM | kcat (purified protein [2]): 70 ± 0.3 s⁻¹ | Km (purified protein [3]): 5500 ± 280 µM | kcat (purified protein [3]): 70 ± 0.3 s⁻¹

From publication PMC4633474, “Kinetic properties and stability of glucose dehydrogenase from Bacillus amyloliquefaciens SB5 and its potential for cofactor regeneration” (AMB Express, 2015)
